Measurements: publication PMC10397247

How the values were obtained:
[1] = biological target: T1, 4H2732-AA; assay: two-hybrid library CCmax;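 note: natural log of median RNA to DNA barcode read ratio; higher means stronger binding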
T1 chain: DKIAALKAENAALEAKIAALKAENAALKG

[2] = biological target: T2, 4H2774-AA; assay: two-hybrid library CCmax; conditions: mean of both orientations;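 note: natural log of median RNA to DNA barcode read ratio; higher means stronger binding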
T2 chain: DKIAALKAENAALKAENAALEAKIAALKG

[3] = biological target: T3, 4H2931-AA; assay: two-hybrid library CCmax; conditions: mean of both orientations;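 note: natural log of median RNA to DNA barcode read ratio; higher means stronger binding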
T3 chain: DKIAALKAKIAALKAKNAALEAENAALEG

[4] = biological target: T4, 4H3001-AA; assay: two-hybrid library CCmax; conditions: mean of both orientations;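 note: natural log of median RNA to DNA barcode read ratio; higher means stronger binding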
T4 chain: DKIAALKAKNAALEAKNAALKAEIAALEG

[5] = biological target: T5, 4H3015-AA; assay: two-hybrid library CCmax; conditions: mean of both orientations;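 note: natural log of median RNA to DNA barcode read ratio; higher means stronger binding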
T5 chain: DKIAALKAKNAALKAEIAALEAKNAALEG

[6] = biological target: T6, 4H3073-AA; assay: two-hybrid library CCmax; conditions: mean of both orientations;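 note: natural log of median RNA to DNA barcode read ratio; higher means stronger binding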
T6 chain: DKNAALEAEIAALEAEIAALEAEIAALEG

[7] = biological target: T7, 4H3438-AA; assay: two-hybrid library CCmax; conditions: mean of both orientations
T7 chain: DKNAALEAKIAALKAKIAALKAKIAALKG

[8] = biological target: T8, 4H347-AA; assay: two-hybrid library CCmax; conditions: mean of both orientations
T8 chain: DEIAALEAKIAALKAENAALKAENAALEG

[9] = biological target: T9, 4H406-AA; assay: two-hybrid library CCmax; conditions: mean of both orientations
T9 chain: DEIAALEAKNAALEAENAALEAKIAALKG

[10] = biological target: T10, 4H452-AA; assay: two-hybrid library CCmax; conditions: mean of both orientations
T10 chain: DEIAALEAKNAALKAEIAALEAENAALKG

[11] = biological target: T11, 4H56-AA; assay: two-hybrid library CCmax; conditions: mean of both orientations
T11 chain: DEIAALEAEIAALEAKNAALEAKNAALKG

[12] = biological target: T12, 4H_APH; assay: two-hybrid library CCmax; conditions: mean of both orientations
T12 chain: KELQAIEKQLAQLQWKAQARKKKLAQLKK

[13] = biological target: T13, 4H_BCR; assay: two-hybrid library CCmax; conditions: mean of both orientations
T13 chain: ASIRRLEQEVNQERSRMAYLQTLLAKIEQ

[14] = biological target: 4H_GCN4; assay: two-hybrid library CCmax; conditions: mean of both orientations
[15] = biological target: GCN2_T; assay: two-hybrid library CCmax
[16] = biological target: T14, 4H319-bH; assay: two-hybrid library CCNG1
T14 chain: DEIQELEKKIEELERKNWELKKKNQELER

[17] = biological target: T15, 4H3277-bH; assay: two-hybrid library CCNG1
T15 chain: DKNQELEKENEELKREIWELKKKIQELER

[18] = biological target: T16, 4H348-bH; assay: two-hybrid library CCNG1
T16 chain: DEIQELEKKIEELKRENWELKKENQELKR

[19] = biological target: T17, 4H40-bH; assay: two-hybrid library CCNG1
T17 chain: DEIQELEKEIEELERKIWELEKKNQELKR

[20] = biological target: T18, 4H477-bH; assay: two-hybrid library CCNG1
T18 chain: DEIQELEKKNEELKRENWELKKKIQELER

[21] = biological target: T19, 4H492-bH; assay: two-hybrid library CCNG1
T19 chain: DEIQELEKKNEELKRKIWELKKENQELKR

[22] = biological target: T20, 4H741-bH; assay: two-hybrid library CCNG1
T20 chain: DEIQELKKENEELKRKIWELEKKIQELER

[23] = biological target: T21, APC3645-AA; assay: two-hybrid library CCmax
T21 chain: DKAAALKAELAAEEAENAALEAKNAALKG

[24] = biological target: T22, APC4011-AA; assay: two-hybrid library CCmax; conditions: mean of both orientations
T22 chain: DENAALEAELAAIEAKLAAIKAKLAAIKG

[25] = biological target: T23, APC4264-AA; assay: two-hybrid library CCmax; conditions: mean of both orientations
T23 chain: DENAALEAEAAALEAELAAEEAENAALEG

[26] = biological target: T24, APC4436-AA; assay: two-hybrid library CCmax; conditions: mean of both orientations
T24 chain: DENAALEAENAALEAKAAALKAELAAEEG

[27] = biological target: T25, APC5383-AA; assay: two-hybrid library CCmax; conditions: mean of both orientations
T25 chain: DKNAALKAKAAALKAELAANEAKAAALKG

[28] = biological target: T26, APC6108-AA; assay: two-hybrid library CCmax; conditions: mean of both orientations
T26 chain: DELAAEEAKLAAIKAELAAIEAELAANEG

[29] = biological target: T27, APC7099-AA; assay: two-hybrid library CCmax; conditions: mean of both orientations
T27 chain: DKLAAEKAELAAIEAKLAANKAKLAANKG

[30] = biological target: T28, APC8191-AA; assay: two-hybrid library CCmax; conditions: mean of both orientations
T28 chain: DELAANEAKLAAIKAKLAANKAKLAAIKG

[31] = biological target: T29, APC8910-AA; assay: two-hybrid library CCmax; conditions: mean of both orientations
T29 chain: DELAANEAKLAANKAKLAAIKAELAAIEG

[32] = biological target: T30, APC9096-AA; assay: two-hybrid library CCmax; conditions: mean of both orientations
T30 chain: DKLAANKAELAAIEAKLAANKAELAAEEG

[33] = biological target: T31, APC9319-AA; assay: two-hybrid library CCmax; conditions: mean of both orientations
T31 chain: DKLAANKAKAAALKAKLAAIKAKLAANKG

[34] = biological target: T32, 4H3297-bA; assay: two-hybrid library CCNG1
T32 chain: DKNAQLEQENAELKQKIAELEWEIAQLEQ

[35] = biological target: T33, 4H3364-bA; assay: two-hybrid library CCNG1
T33 chain: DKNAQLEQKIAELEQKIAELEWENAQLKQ

[36] = biological target: T34, 4H3381-bA; assay: two-hybrid library CCNG1
T34 chain: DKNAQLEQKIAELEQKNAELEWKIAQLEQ

[37] = biological target: T35, 4H349-bA; assay: two-hybrid library CCNG1
T35 chain: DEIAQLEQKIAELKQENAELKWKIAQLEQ

[38] = biological target: T36, 4H56-bA; assay: two-hybrid library CCNG1
T36 chain: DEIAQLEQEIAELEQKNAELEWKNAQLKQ

[39] = biological target: T37, 4H730-bA; assay: two-hybrid library CCNG1
T37 chain: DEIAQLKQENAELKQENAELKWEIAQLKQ

[40] = biological target: T38, 4H796-bA; assay: two-hybrid library CCNG1
T38 chain: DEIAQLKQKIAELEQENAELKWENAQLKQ

[41] = biological target: T39, 4H932-bA; assay: two-hybrid library CCNG1
T39 chain: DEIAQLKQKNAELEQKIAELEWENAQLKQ

[42] = biological target: T40, 4H949-bA; assay: two-hybrid library CCNG1
T40 chain: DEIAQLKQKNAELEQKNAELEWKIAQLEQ

4H_GCN4, sequence (chain, as listed by the source): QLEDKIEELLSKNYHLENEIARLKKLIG

Binder: DKIAALKAENAALEAKIAALKAENAALKG [4H2732-AA]
- interaction score [1]: 0.324
- interaction score [2]: -1.29
- interaction score [3]: -1.81
- interaction score [4]: -1.46
- interaction score [5]: 1.14
- interaction score [6]: 0.0758
- interaction score [7]: -1.2
- interaction score [8]: -1.49
- interaction score [9]: -1.22
- interaction score [10]: 2.3
- interaction score [11]: -1.58
- interaction score [12]: -1.5
- interaction score [13]: -2.17
- interaction score [14]: -1.08
- interaction score [15]: -1.15

Binder: DEIQELEKKIEELERKNWELKKKNQELER [4H319-bH]
- interaction score [16]: 1.04
- interaction score [17]: -0.168
- interaction score [18]: 0.143
- interaction score [19]: -2.01
- interaction score [20]: -0.71
- interaction score [21]: -0.172
- interaction score [22]: 0.321

Binder: DKAAALKAELAAEEAENAALEAKNAALKG [APC3645-AA]
- interaction score [23]: -1.12
- interaction score [24]: -1.34
- interaction score [25]: -1.56
- interaction score [26]: -2.1
- interaction score [27]: -1.51
- interaction score [28]: -1.68
- interaction score [29]: -1.63
- interaction score [30]: -1.7
- interaction score [31]: -1.79
- interaction score [32]: -1.71
- interaction score [33]: -1.55

Binder: DKNAQLEQENAELKQKIAELEWEIAQLEQ [4H3297-bA]
- interaction score [34]: 1.19
- interaction score [35]: -0.887
- interaction score [36]: -0.995
- interaction score [37]: -1.15
- interaction score [38]: -0.874
- interaction score [39]: -0.992
- interaction score [40]: -1.18
- interaction score [41]: -0.454
- interaction score [42]: -0.949
